± gives the standard deviation of the averaged measurements.
The sequences below were run on ATP (assay: switch fluorescence ratio, 500 uM ATP over buffer (Cy3 cluster intensity, sum of 5 cycles each) (fold (ratio)); higher = stronger signal-on switching upon ATP binding; sequences stand for … in TCGTCGGCAGCGTCAGATGTGTATAAGAGACAGTTTTTTTTTTTTTTTTTTTTTTTTT…TC). Conditions: aptamer strand: ATP DNA aptamer (quencher-CACCTGGGGGAGTATTGCGGAGGAAGG + anchor), 100 nM annealed; ATP concentration: 500 uM.
Summary of the method: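 Switching-strand clusters labelled with Cy3 on a modified Illumina MiSeq flow-cell were annealed to 100 nM quencher-labelled ATP aptamer, imaged in selection buffer, and re-imaged after 15 min with 500 uM ATP at 22 °C. This was done over five cycles with NaOH stripping and re-annealing in between. The fluorescence ratio is summed target-cycle over summed buffer-cycle Cy3 intensity per cluster, averaged per switch-domain sequence, excluding clusters outside 100-1000 RFU.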
GAATTTTATG showed a switch fluorescence ratio of 0.9549 ± 0.0062. In the case of GAATTTTGCG, the switch fluorescence ratio is reported as 0.999 ± 0.021. For GAATTTTTTG, the switch fluorescence ratio was 0.988 ± 0.012. With GACAACATTT the switch fluorescence ratio was 0.9967 ± 0.004. Sequence GACAATAAGT has a switch fluorescence ratio of 1.04 ± 0.012. GACAATGGTG gave a switch fluorescence ratio of 1.021 ± 0.0049. GACAATGTAC was tested, and the switch fluorescence ratio was 4.02 ± 0.16. Work on GACACGGAAA yielded a switch fluorescence ratio of 1.23 ± 0.29. GACAGAGGGA was tested, and the switch fluorescence ratio was 1.02 ± 0.031. With GACAGCCGGT the switch fluorescence ratio was 1.01 ± 0.029. For GACAGGAATT, the switch fluorescence ratio was 1.029 ± 0.008. For GACAGGGATT, the switch fluorescence ratio was 1.1 ± 0.15. GACAGGTGCG gave a switch fluorescence ratio of 1.274 ± 0.012. GACAGTAGTC showed a switch fluorescence ratio of 1.001 ± 0.0049. With GACAGTCGGG the switch fluorescence ratio was 1.01 ± 0.024. GACATAGGTT was tested, and the switch fluorescence ratio was 1.034 ± 0.008. In the case of GACATAGTTT, the switch fluorescence ratio is reported as 1.021 ± 0.01. For GACATCAGAG, the switch fluorescence ratio was 1.02 ± 0.053. GACATGGACG showed a switch fluorescence ratio of 1.088 ± 0.0062. Work on GACATGGGTT yielded a switch fluorescence ratio of 0.983 ± 0.015. In the case of GACATTCCCT, the switch fluorescence ratio is reported as 1.07 ± 0.016. Work on GACATTGGCT yielded a switch fluorescence ratio of 0.948 ± 0.03. GACATTGTGT showed a switch fluorescence ratio of 0.98604 ± 0.00074. GACATTGTTA gave a switch fluorescence ratio of 1.01 ± 0.063. GACATTTGGA gave a switch fluorescence ratio of 1.017 ± 0.0066. For GACATTTTTT, the switch fluorescence ratio was 0.978 ± 0.036. For GACCAAGGGT, the switch fluorescence ratio was 0.978 ± 0.012. GACCACAT showed a switch fluorescence ratio of 1.05 ± 0.004. GACCACTTGA showed a switch fluorescence ratio of 1.01 ± 0.014. For GACCATTGTT, the switch fluorescence ratio was 1.01 ± 0.013. Sequence GACCCAAGGC has a switch fluorescence ratio of 1.194 ± 0.01. For GACCGATGGG, the switch fluorescence ratio was 1.01 ± 0.013. GACCGATGTG showed a switch fluorescence ratio of 1.01 ± 0.013. With GACCGCTGGT the switch fluorescence ratio was 0.996 ± 0.039. GACCGGGTTC showed a switch fluorescence ratio of 1.02 ± 0.033. GACCTATGGA showed a switch fluorescence ratio of 0.997 ± 0.0037. GACCTTAATT gave a switch fluorescence ratio of 1.01 ± 0.025. With GACCTTGACG the switch fluorescence ratio was 1.02 ± 0.022. With GACCTTGGTG the switch fluorescence ratio was 1.03 ± 0.083. GACCTTTCTG showed a switch fluorescence ratio of 0.997 ± 0.025. Work on GACCTTTGAG yielded a switch fluorescence ratio of 1.017 ± 0.0045. GACCTTTTT was tested, and the switch fluorescence ratio was 1.02 ± 0.042. Sequence GACCTTTTTC has a switch fluorescence ratio of 1.03 ± 0.068. Sequence GACGACGGGG has a switch fluorescence ratio of 1.05 ± 0.028. With GACGATGCCA the switch fluorescence ratio was 1.16 ± 0.035. GACGCAGGGT was tested, and the switch fluorescence ratio was 1.34 ± 0.25. In the case of GACGCATATG, the switch fluorescence ratio is reported as 2.03 ± 0.098. In the case of GACGCCGGGT, the switch fluorescence ratio is reported as 1.03 ± 0.02. GACGCCGGTC was tested, and the switch fluorescence ratio was 1.25 ± 0.27. Sequence GACGCGGAAC has a switch fluorescence ratio of 5.48 ± 0.37. GACGGAACGG gave a switch fluorescence ratio of 1.04 ± 0.022. Work on GACGGAAGCA yielded a switch fluorescence ratio of 1.38 ± 0.11. Work on GACGGCGTCG yielded a switch fluorescence ratio of 0.974 ± 0.011. GACGGCTTGG was tested, and the switch fluorescence ratio was 1.02 ± 0.025. GACGGGCGGC was tested, and the switch fluorescence ratio was 0.984 ± 0.02. GACGGGCTGG was tested, and the switch fluorescence ratio was 0.989 ± 0.024. With GACGGGCTGT the switch fluorescence ratio was 0.985 ± 0.029. GACGGGGAAA gave a switch fluorescence ratio of 1.01 ± 0.028. Work on GACGGGGCG yielded a switch fluorescence ratio of 0.97 ± 0.057. GACGGTTGTG showed a switch fluorescence ratio of 1 ± 0.012. With GACGTAGGTC the switch fluorescence ratio was 1 ± 0.029. In the case of GACGTAGTTT, the switch fluorescence ratio is reported as 1.014 ± 0.0021. GACGTGACAA gave a switch fluorescence ratio of 1.168 ± 0.0021. GACGTGACGA was tested, and the switch fluorescence ratio was 1.15 ± 0.019. GACGTGGTTT gave a switch fluorescence ratio of 0.994 ± 0.046. In the case of GACGTTCGGC, the switch fluorescence ratio is reported as 0.991 ± 0.026. With GACTAAGTGT the switch fluorescence ratio was 1 ± 0.022. GACTACTGTA was tested, and the switch fluorescence ratio was 1.04 ± 0.051. With GACTAGACGG the switch fluorescence ratio was 1.13 ± 0.041. GACTAGGTTT showed a switch fluorescence ratio of 1.04 ± 0.013. GACTATCGGA gave a switch fluorescence ratio of 1.03 ± 0.013. For GACTATGAGA, the switch fluorescence ratio was 0.9936 ± 0.0039. Sequence GACTATGGTT has a switch fluorescence ratio of 0.986 ± 0.051. GACTATGTTT showed a switch fluorescence ratio of 1 ± 0.044. GACTCAAGTT showed a switch fluorescence ratio of 1.048 ± 0.0054. GACTCAATGG gave a switch fluorescence ratio of 1.14 ± 0.03. For GACTCAGTTG, the switch fluorescence ratio was 0.9947 ± 0.0084. GACTCGAGGC was tested, and the switch fluorescence ratio was 1.05 ± 0.06. Work on GACTCGGTGC yielded a switch fluorescence ratio of 1.05 ± 0.019. With GACTCTGAGT the switch fluorescence ratio was 1.01 ± 0.017. GACTCTTGAA gave a switch fluorescence ratio of 0.995 ± 0.071. GACTGATCGT showed a switch fluorescence ratio of 1.008 ± 0.0059. Work on GACTGATTGG yielded a switch fluorescence ratio of 1.02 ± 0.012. GACTGGCTGG showed a switch fluorescence ratio of 1 ± 0.03. Sequence GACTGGGGTA has a switch fluorescence ratio of 0.988 ± 0.011. GACTGGGTG was tested, and the switch fluorescence ratio was 1.04 ± 0.014. In the case of GACTGGGTTG, the switch fluorescence ratio is reported as 0.9668 ± 0.0011. GACTGTGATC gave a switch fluorescence ratio of 1.037 ± 0.0042. In the case of GACTGTTCGG, the switch fluorescence ratio is reported as 0.985 ± 0.025. GACTTAGAAT showed a switch fluorescence ratio of 1 ± 0.0026. GACTTATCTA gave a switch fluorescence ratio of 1.016 ± 0.0073. For GACTTCGTGG, the switch fluorescence ratio was 1.01 ± 0.056. GACTTGATTA showed a switch fluorescence ratio of 0.9719 ± 0.0062. GACTTGGGAT showed a switch fluorescence ratio of 1.034 ± 0.0019. GACTTGGGGC gave a switch fluorescence ratio of 0.993 ± 0.037. In the case of GACTTTACGG, the switch fluorescence ratio is reported as 1.06 ± 0.048. GACTTTGGAG gave a switch fluorescence ratio of 1 ± 0.027. With GACTTTGGGA the switch fluorescence ratio was 0.999 ± 0.023. GACTTTGTGC was tested, and the switch fluorescence ratio was 0.9772 ± 0.0022. GACTTTTCTT showed a switch fluorescence ratio of 0.971 ± 0.033.
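Further: ATP exposure 15 min at 22 °C before imaging.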
